Measurements taken from patent US11098081B2, “Epitope tag and method for detection and/or purification of tagged polypeptides” (ChromoTek GmbH, priority 2015, dated 2021).
Values joined by “and” are separate entries in the source; they are usually repeats but may differ in a detail not shown here. Identical values can stand only once.

T1: full-length β-catenin or domains (N-terminus aa 1-119, armadillo domain, C-terminus) (Homo sapiens, UniProt P35222)
T1 construct: full-length β-catenin or the following domains of β-catenin: N-terminus aa 1-119; made in house; host or cells: E. coli BL21(DE3) CodonPlus-RIL
T1 sequence (P35222 1-119): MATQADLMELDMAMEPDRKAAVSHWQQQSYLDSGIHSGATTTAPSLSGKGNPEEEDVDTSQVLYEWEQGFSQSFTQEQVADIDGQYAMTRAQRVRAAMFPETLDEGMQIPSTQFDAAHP

B1: BC2-Nb: nanobody; variable region of a heavy chain antibody of Camelidae, 122 aa, SEQ ID NO: 6, binds the BC2 epitope tag (protein)
VHH: QVQLVESGGGLVQPGGSLTLSCTASGFTLDHYDIGWFRQAPGKEREGVSCINNSDDDTYYADSVKGRFTIFMDNAKDTVYLQMNSLKPEDTAIYYCAEARGCKRGRYEYDFWGQGTQVTVSS
modifications: BC2-Nb
B2: BC2-NbAF488: BC2-Nb chemically coupled to the organic dye AlexaFluor488 (conjugate)
VHH: B1 VHH
modifications: left off: small tags and cut ends
notes: BC2-Nb chemically coupled to the organic dye AlexaFluor488
B3: BC2-NbATTO647: BC2-Nb coupled to the organic dye ATTO647 (conjugate)
VHH: B1 VHH
modifications: left off: small tags and cut ends
notes: BC2-Nb coupled to the organic dye ATTO647

Experiments:
[1] = target: GFP with a C-terminal BC2-tag (GFPBC2T) (Aequorea victoria, UniProt P42212, F64L/H231L/S65T)
Protocol: For surface plasmon resonance spectroscopy (SPR)-based affinity measurements. […] The obtained data sets were evaluated using the 1:1 Langmuir binding model with mass transfer. As a control.
The affinity measurements of the BC2 nanobody and the indicated mutants thereof to GFPBC2T were performed using surface plasmon resonance spectroscopy with a Biacore 3000 instrument (GE-Healthcare). GFPBC2T was covalently coupled on dextran fibers of a CM5 sensorchip (GE Healthcare) to a response level of 500 RU. One flow cells was activated and blocked in the absence of protein to determine background, another was loaded with untagged GFP as a control against unspecific binding. […] Each measurement was done in duplicates. As running dilution buffer 10 mM HEPES pH 7.4, 150 mM NaCl, 0.5% surfactant Tween was used. Measurements were performed at 25° C. For the association of BC2-Nb a How rate of 50 μl/min for 15 s and for the dissociation a flow rate of 50 μl/min for 600 s was applied. The regeneration was induced by injection of 23 μl regeneration solution at a flow rate of 30 μl/min. As regeneration solution 10 mM glycine-HCl pH 2.0 was used. The data was evaluated using the software Bia evaluation 4.1 and the 1:1 Langmuir binding model with mass transfer.

[2] = target: T1, full-length β-catenin or domains (N-terminus aa 1-119, armadillo domain, C-terminus); assay: Domain mapping of β-catenin binders (microsphere-based sandwich immunoassay); format: binding
Protocol: Microsphere-immobilized Nbs were incubated with GST-fusion constructs comprising full-length β-catenin or indicated domains. Captured β-catenin constructs were detected with domain-specific antibodies. For direct comparison, fluorescence intensities obtained with domain-specific antibodies were normalized to signals obtained with an anti-GST-antibody.
BC2-Nb was covalently immobilized on microspheres using a modified manufacturer's protocol described in Poetz et al. ((2009) Microsphere-based co-immunoprecipitation in multiplex. Analytical biochemistry 395, 244-248). Immobilized BC2-Nb was incubated with purified proteins representing full-length β-catenin or the following domains of β-catenin: N-terminus aa 1-119, armadillo domain aa 120-683 and C-terminus aa 683-781. Purified Glutathion-S-transferase (GST) was used as a negative control. Concentrations range from 0.25 μg/ml to 2 μg/ml. Bound proteins were detected with domain-specific antibodies including ABC antibody clone 8E7 (Merck Millipore) specific for the N-terminus, anti-β-catenin 9G10 (Merck Millipore) targeting the armadillo domain and anti-β-catenin clone 14 (Becton Dickinson) specifically recognizing the C-terminus. To detect unspecific binding of the BC2-Nb to GST an antibody against GST (6G9, ChromoTek) was used. […] The microspheres were measured in a FlexMap 3D instrument (Luminex). […]

[3] = system: peptides of the β-catenin N-terminus (aa 1-127); assay: Epitope mapping (pepscan) with biotinylated BC2-Nb on peptide-coated microspheres; format: binding, human
Excerpt: (SEQ ID NO: 4), […] […] (SEQ ID NO: 65).
As negative controls, microspheres comprising Ovalbumin and the Myc-peptide ([…]) covalently coupled to OVA-microspheres were used.

[4] = system: BC2-tagged proteins (eGFP-PCNABC2T, mCherry-VIMBC2T); assay: Western blot detection with fluorescently labeled BC2-Nb; format: binding
Protocol: (b) For Western blot detection using fluorescently labeled B2-Nb (BC2-NbAF488) indicated amounts of the input fractions (as shown in (a)) were subjected to SDS-PAGE and immunoblotting. The Western blots were probed with BC2-N488 followed by detection with anti-PCNA (left panel) or anti-Vimentin (right panel) antibodies. As loading control blots were probed with an anti-GAPDH antibody (lower panel).
Denaturing polyacrylamide gel electrophoresis (SDS-PAGE) was performed according to standard procedures Protein samples were boiled in 2× SDS-sample buffer (60 mM Tris/HCl, pH 6.8; 2% (w/v) SDS; 5% (v/v) 2-mercaploethanol, 10% (v/v) glycerol, 0.02% bromophenole blue). For immunoblotting proteins were transferred on nitrocellulose membranes (Bio-Rad Laboratories).
Purified BC2 nanobody (1 mg) was labeled with the NHS-activated fluorescent dyes Alexa488 (Life technologies) or Atto647 (Atto-Tec) according to manufacturer's guidelines. After coupling, unbound dye was removed by separation on PD-10 Desalting Columns (GE Healthcare). For immunoblot analysis. 5 μg of BC2-NbAF488 was diluted in 4 ml 3% BSA diluted in TBS, 0.05% Tween20 and Western blots were incubated for 1 h at RT.

[5] = system: HeLa cells expressing mCherry-VIMBC2T or GFP-PCNABC2T; assay: Immunocytochemistry with fluorescently labeled BC2-Nb; format: cell-based, human; settings: mCherry-VIMBC2T (AF488) or GFP-PCNABC2T (ATTO647)
Excerpt: (b) HeLa cells ectopically expressing mCherry-VIMBC2T or eGFP-PCNABC2T were fixed either with methanol or PFA, respectively, followed by staining with the indicated fluorescently labeled BC2-Nbs and DAPI. Scale bar 25 μm.
HeLa cells ectopically expressing untagged mCherry-VIM or eGFP-PCNA were fixed with methanol or PFA, respectively, and stained with the indicated fluorescently labeled BC2-Nbs and DAPI. Scale bar 25 μm.
For immunocytochemistry 5-10×10^3 adherent HeLa cells per well of a μClear 96 well plate (Greiner) were transfected with plasmids coding for C-terminally BC2-tagged vimentin or PCNA After 24 h, cells were washed once with PBS and fixed with 4% w/v paraformaldehyde (PFA) in PBS for 15 mm at RT or with methanol for 15 mm at −20° C. After removal of the fixative and washing twice with PBS, cells were blocked and permeabilized with 3% w/v BSA and 0.1% v/v Triton X-100 in PBS for 1 h at RT Subsequently, labeled BC2 nanobody was added with a final concentration of 10-15 μg/ml and 4′,6-diamidino-2-phenyl indole (DAPI, Sigma Aldrich) with a final concentration of 1 μg/ml for overnight incubation at 4° C. Unbound nanobody and DAPI were removed by washing 3 limes with a mixture of PBS and 6% v/v 5 M NaCl in H2O. Images of FIG. 4 b and FIG. 10 b were acquired with an Image Xpress micro XL system. Confocal images of FIG. 10 a were acquired with an ImageXpress Micro Confocal.

Molecule	Rmax [RU] ([1]; SPR, GFPBC2T on CM5 chip, 1:1 Langmuir binding model with mass transfer)	Kd ([1]; SPR, GFPBC2T on CM5 chip, 25° C., 1:1 Langmuir binding model with mass transfer)	kon (M^−1s^−1) ([1]; SPR, association rate constant)	koff (s^−1) ([1]; SPR, dissociation rate constant)	fold higher affinity compared to FLAG, HA, c-myc or EPEA systems ([1]; comparison with literature values of prior-art tag systems)	β-catenin domain recognized [2]	binding to epitope peptide with phosphorylated Ser23 [3]	binding to overlapping 15-mer peptides ([3]; 29 peptides covering aa 1-127)	amino acid sequence recognized (minimal epitope) ([3]; N- and C-terminally truncated peptides)	signal for endogenous β-catenin in Western blot ([4]; in the presence of BC2-tagged proteins)	specificity in Western blot detection ([4]; untagged proteins not detected)	co-localization with BC2-tagged protein in fixed HeLa cells [5]
B1	170 ± 0.34	1.4 nM and ~1.4 nM	4.6 ± 0.04 × 10^5 M^−1s^−1	6.4 ± 0.27 × 10^−4 s^−1	10-100 fold	exclusively recognizes the N-terminal domain (aa 1-119)	completely abolishes binding	strong binding to two consecutive peptides comprising the residues 13-31	PDRKAAVSHWQQ			
B2										no signal for β-catenin was detected	highly specific for BC2-tagged proteins	strong co-localization
B3												clear co-localization
